Results as given in paper PMC6089211, “Expression and purification of human diacylglycerol kinase α from baculovirus-infected insect cells for structural studies” (PeerJ, 2018).

System: T1, Nc1ncnc2c1ncn2[C@@H]1O[C@H](COP(=O)(O)OP(=O)(O)OP(=O)(O)O)[C@@H](O)[C@H]1O
T1 construct: full-length DGKα (aa 1–735), N-terminal His×6 tag, Sf9-expressed
Assay: Michaelis–Menten kinetics, mixed micelle ADP-Glo assay (Km)
Assay type: biochemical, Homo sapiens
Conditions: Mg2+, Ca2+ substrate (ATP and DG) binding sites locate in the CD

diacylglycerol kinase α (DGKα) (Homo sapiens), sequence (chain, as listed by the source): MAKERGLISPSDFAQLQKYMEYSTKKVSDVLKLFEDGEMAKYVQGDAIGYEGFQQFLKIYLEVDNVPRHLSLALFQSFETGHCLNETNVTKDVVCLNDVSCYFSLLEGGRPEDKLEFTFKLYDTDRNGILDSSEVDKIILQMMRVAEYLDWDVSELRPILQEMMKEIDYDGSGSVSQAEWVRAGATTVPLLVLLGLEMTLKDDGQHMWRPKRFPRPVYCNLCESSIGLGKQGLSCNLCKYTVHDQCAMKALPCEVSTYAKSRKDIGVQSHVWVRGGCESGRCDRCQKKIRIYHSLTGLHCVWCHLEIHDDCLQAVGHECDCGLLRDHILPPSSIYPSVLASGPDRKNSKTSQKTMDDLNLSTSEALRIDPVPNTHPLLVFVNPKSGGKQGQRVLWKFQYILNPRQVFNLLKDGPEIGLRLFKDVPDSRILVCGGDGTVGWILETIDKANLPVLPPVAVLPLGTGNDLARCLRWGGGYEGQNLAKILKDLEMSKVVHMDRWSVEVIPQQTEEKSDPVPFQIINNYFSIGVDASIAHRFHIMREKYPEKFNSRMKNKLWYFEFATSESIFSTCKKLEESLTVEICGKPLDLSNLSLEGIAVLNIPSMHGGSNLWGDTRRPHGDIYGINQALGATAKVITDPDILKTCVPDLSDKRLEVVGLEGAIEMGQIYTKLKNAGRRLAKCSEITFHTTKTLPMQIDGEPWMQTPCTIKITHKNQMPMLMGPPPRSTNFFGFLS

Substance: diacylglycerol kinase α (DGKα) (Homo sapiens)
- Km: 240 ± 30 µM
- Vmax: 2.66 ± 0.15 nmol/min/µg
